This data set can be described thus: self-splicing fitness, log relative to wild type (ln ratio); higher = more splicing; Tetrahymena group I intron in knt gene, E. coli kanamycin selection, DiMSum; sequences stand for … in CUCUCU…GGAGGGAAAAGUUAUCAGGCAUGCACCUGGUAGCUAGUCUUUAAACCAAUAGAUUGCAUCGGUUUAAAAGGCAAGACCGUCAAAUUGCGGGAAAGGGGUCAACAGCCGUUCAGUACCAAGUCUCAGGGGAAACUUUGAGAUGGCCUUGCAAAGGGUAUGGUAAUAAGCUGACGGACAUGGUCCUAACCACGCAGCCAAGUCCUAAGUCAACAGAUCUUCUGUUGAUAUGGAUGCAGUUCACAGACUAAAUGUCGGUCGGGGAAGAUGUAUUCUUCUCAUAAGAUAUAGUCGGACCUCUCCUUAAUGGGAGCUAGCGGAUGAAGUGAUGCAACACUGGAGCCGCUGGGAACUAAUUUGUAUGCGAAAGUAUAUUGAUUAGUUUUGGAGUACUCGUGGUCG
A digest of the protocol: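 Fitness was computed with DiMSum as the error-weighted combination of replicate fold changes, kanamycin versus none, each normalised to wild type. The library randomised all eight intron nucleotides of the P1ex region, with the intron placed in the knt kanamycin-resistance gene on pET-22b(+) in E. coli BL21(DE3). Six replicate transformations were grown overnight at 37°C or 30°C on LB agar with or without 25 μg/mL kanamycin, plus 100 μg/mL carbenicillin, 50 μM IPTG and 0.2% rhamnose. Pooled colonies were amplicon-sequenced on an Illumina HiSeq 2500.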

± gives the uncertainty stated by the source.

On to AAUCAGCAAUAUUACGCGGC, for which the “self-splicing fitness (ln)” value was -1.53 ± 0.26 (30 °C) and 0.179 ± 0.16 (37 °C).
As for GCUGAGCAAUAUUACGAUGU, the “self-splicing fitness (ln)” value was -2.49 ± 0.1 (30 °C) and -0.739 ± 0.12 (37 °C).
As for UUCUAGCAAUAUUACGUUCG, the “self-splicing fitness (ln)” value is -2.17 ± 0.14 (30 °C) and -1.29 ± 0.16 (37 °C).
Turning to CUAUAGCAAUAUUACGCCAA, the “self-splicing fitness (ln)” value (37 °C) is -1.68 ± 0.49.
Regarding GCAGAGCAAUAUUACGACGA, the “self-splicing fitness (ln)” value reads like this: (30 °C) -2.64 ± 0.24; (37 °C) -0.208 ± 0.12.
For AUGUAGCAAUAUUACGGAGU the same measures were -3.01 ± 0.23 and -1.2 ± 0.18.
For AGGAAGCAAUAUUACGAUCC the same measures were -0.54 ± 0.16 and -0.331 ± 0.17.
For CGGAAGCAAUAUUACGAAGA the same measures were -3.45 ± 0.4 and -3.08 ± 0.47.
As for UAAAAGCAAUAUUACGGACC, the “self-splicing fitness (ln)” value was -1.44 ± 0.2 (30 °C) and -1.46 ± 0.29 (37 °C).
On to AAAAAGCAAUAUUACGCGGC, for which the “self-splicing fitness (ln)” value (30 °C) was -3.53 ± 0.26 and the “self-splicing fitness (ln)” value (37 °C) is -2.15 ± 0.27.
For CGGCAGCAAUAUUACGAGUU, the “self-splicing fitness (ln)” value was -5.14 ± 0.41 (30 °C) and -2.69 ± 0.29 (37 °C).
Regarding ACUGAGCAAUAUUACGCUCU, the “self-splicing fitness (ln)” value reads like this: (30 °C) -3.59 ± 0.2; (37 °C) -2.31 ± 0.24.
Turning to AACGAGCAAUAUUACGCUGU, the “self-splicing fitness (ln)” value reads like this: (30 °C) -2.67 ± 0.45; (37 °C) -2.99 ± 0.4.
In the case of AGACAGCAAUAUUACGGAUA, the “self-splicing fitness (ln)” value is -2.97 ± 0.12 (30 °C) and -2.17 ± 0.13 (37 °C).
The corresponding values for GUACAGCAAUAUUACGUUCA are -1.51 ± 0.15 and -0.775 ± 0.17.
For the sequence GUCGAGCAAUAUUACGGAAU, the “self-splicing fitness (ln)” value is, setting by setting: (30 °C) -2.48 ± 0.16; (37 °C) -1.12 ± 0.14.
As for CUGAAGCAAUAUUACGUACG, the “self-splicing fitness (ln)” value reads like this: (30 °C) 0.694 ± 0.073; (37 °C) 0.514 ± 0.09.
Regarding UACAAGCAAUAUUACGUUUC, the “self-splicing fitness (ln)” value (30 °C) was -2.55 ± 0.2 and the “self-splicing fitness (ln)” value (37 °C) was -1.72 ± 0.2.
For GACUAGCAAUAUUACGCCCC the same measures were -0.792 ± 0.23 and -0.904 ± 0.27.
Regarding GGGUAGCAAUAUUACGGCAU, the “self-splicing fitness (ln)” value (30 °C) is -0.0241 ± 0.076 and the “self-splicing fitness (ln)” value (37 °C) was -0.23 ± 0.096.
Consider GGUAAGCAAUAUUACGGACU, for which the “self-splicing fitness (ln)” value (30 °C) is -1.43 ± 0.17 and the “self-splicing fitness (ln)” value (37 °C) is -0.246 ± 0.2.
Take UCCUAGCAAUAUUACGCUAG: the “self-splicing fitness (ln)” value (30 °C) is -3.47 ± 0.44.
As for CACGAGCAAUAUUACGGGUC, the “self-splicing fitness (ln)” value runs as follows: (30 °C) -4.31 ± 0.26; (37 °C) -1.99 ± 0.15.
As to AGUUAGCAAUAUUACGUAAG, the “self-splicing fitness (ln)” value by setting is: (30 °C) -2.42 ± 0.21; (37 °C) -0.816 ± 0.27.
For GUCAAGCAAUAUUACGGGAC, the “self-splicing fitness (ln)” value (30 °C) is -2.81 ± 0.5.
Regarding CGCUAGCAAUAUUACGUUUA, the “self-splicing fitness (ln)” value is -3.37 ± 0.23 (30 °C) and -2.56 ± 0.18 (37 °C).
With CUCAAGCAAUAUUACGAAGC, the “self-splicing fitness (ln)” value (30 °C) was -3.4 ± 0.28 and the “self-splicing fitness (ln)” value (37 °C) is -2.56 ± 0.35.
With CCUAAGCAAUAUUACGUGGC, the “self-splicing fitness (ln)” value was -3.59 ± 0.18 (30 °C) and -2.85 ± 0.19 (37 °C).
With CGUUAGCAAUAUUACGUCUA, the “self-splicing fitness (ln)” value is -3 ± 0.28 (30 °C) and -2.33 ± 0.24 (37 °C).
Consider UGGAAGCAAUAUUACGUUGC, for which the “self-splicing fitness (ln)” value is -4.13 ± 0.47 (30 °C) and -3.11 ± 0.4 (37 °C).
For UCUAAGCAAUAUUACGGAGG, the “self-splicing fitness (ln)” value (30 °C) is -2.49 ± 0.26 and the “self-splicing fitness (ln)” value (37 °C) was -3.05 ± 0.43.
Turning to ACUAAGCAAUAUUACGUCUU, the “self-splicing fitness (ln)” value runs as follows: (30 °C) -1.5 ± 0.075; (37 °C) -1.14 ± 0.078.
As for UGGGAGCAAUAUUACGAUGA, under “37 °C”, the “self-splicing fitness (ln)” value is -1.63 ± 0.42.
For AAUUAGCAAUAUUACGAGCC, where the note is “37 °C”, the “self-splicing fitness (ln)” value was -1.57 ± 0.47.
For the sequence CCUCAGCAAUAUUACGCCCA, the “self-splicing fitness (ln)” value reads like this: (30 °C) -3.18 ± 0.22; (37 °C) -3.5 ± 0.39.
For the sequence GAAAAGCAAUAUUACGUCAG, the “self-splicing fitness (ln)” value is -3.91 ± 0.33 (30 °C) and -1.39 ± 0.19 (37 °C).
For CGAUAGCAAUAUUACGAUCU the same measures were -0.235 ± 0.11 and 0.177 ± 0.12.
For AUAAAGCAAUAUUACGAUAU the same measures were -0.0773 ± 0.088 and 0.168 ± 0.1.
The corresponding values for GUGUAGCAAUAUUACGAUCC are -0.838 ± 0.21 and -0.041 ± 0.46.

These data come from the supplement of paper PMC7877785.
